Experimental data: publication PMC11031989, “Structural determinants for activation of the Tau kinase CDK5 by the serotonin receptor 5-HT7R” (Cell Communication and Signaling : CCS, 2024)

Experiments:
[1] = target: T1, mCherry-tagged CDK5 (cyclin-dependent kinase 5) (UniProt Q00535 1-292); assay: co-IP; N1E-115 cells co-transfected with mCherry-tagged CDK5 and HA-tagged 5-HT7R constructs; IP with anti-mCherry antibody, Western blot with anti-HA antibody; ratio of co-precipitated receptor normalized to the WT sample; also done after knock-down of Gαs by shRNA (Additional file 5); details: partners not purified
T1 construct: Cyclin-dependent kinase 5 (CDK5); Printed both as CDK5-mCherry and as mCherry-CDK5; also called CDK5-mCherry; mCherry-CDK5; source: N1E-115 cells, transfected, in lysate

[2] = target: T1, mCherry-tagged CDK5 (cyclin-dependent …); assay: cell-based or functional assay

co-precipitated receptor, normalized to WT [1] [%] | phosphorylation of endogenous CDK5 at S159 (read-out for CDK5 activation) in N1E-115 cells expressing the HA-tagged receptor, % of WT [2] [%] | Binder
100 |  | HA-tagged 5-HT7R (serotonin receptor 7), wild type (receptor, UniProt P32304 1-448, looked up, Serotonin receptor 7 (5-HT7R), wild type; pcDNA3.1(+) vector; also called 5-HT7R WT; WT; source: N1E-115 cells, transfected, in lysate; not shown: HA, N-terminal, kept) MMDVNSSGRPDLYGHLRSLILPEVGRRLQDLSPDGGAHSVVSSWMPHLLSGFPEVTASPAPTWDAPPDNVSGCGEQINYGRVEKVVIGSILTLITLLTIAGNCLVVISVCFVKKLRQPSNYLIVSLALADLSVAVAVMPFVSVTDLIGGKWIFGHFFCNVFIAMDVMCCTASIMTLCVISIDRYLGITRPLTYPVRQNGKCMAKMILSVWLLSASITLPPLFGWAQNVNDDKVCLISQDFGYTIYSTAVAFYIPMSVMLFMYYQIYKAARKSAAKHKFSGFPRVQPESVISLNGVVKLQKEVEECANLSRLLKHERKNISIFKREQKAATTLGIIVGAFTVCWLPFFLLSTARPFICGTSCSCIPLWVERTCLWLGYANSLINPFIYAFFNRDLRTTYRSLLQCQYRNINRKLSAAGMHEALKLAERPERSEFVLQNCDHCGKKGHDT
73.8 | 45.7 | HA-tagged 5-HT7R F281A (receptor, UniProt P32304 1-448, looked up, Serotonin receptor 7 (5-HT7R) with F281A in intracellular loop 3; Primers are in Additional file 1; source: N1E-115 cells, transfected, in lysate; not shown: HA, N-terminal, kept) MMDVNSSGRPDLYGHLRSLILPEVGRRLQDLSPDGGAHSVVSSWMPHLLSGFPEVTASPAPTWDAPPDNVSGCGEQINYGRVEKVVIGSILTLITLLTIAGNCLVVISVCFVKKLRQPSNYLIVSLALADLSVAVAVMPFVSVTDLIGGKWIFGHFFCNVFIAMDVMCCTASIMTLCVISIDRYLGITRPLTYPVRQNGKCMAKMILSVWLLSASITLPPLFGWAQNVNDDKVCLISQDFGYTIYSTAVAFYIPMSVMLFMYYQIYKAARKSAAKHKFSGAPRVQPESVISLNGVVKLQKEVEECANLSRLLKHERKNISIFKREQKAATTLGIIVGAFTVCWLPFFLLSTARPFICGTSCSCIPLWVERTCLWLGYANSLINPFIYAFFNRDLRTTYRSLLQCQYRNINRKLSAAGMHEALKLAERPERSEFVLQNCDHCGKKGHDT
64.5 | 49.2 | HA-tagged 5-HT7R F278A;F281A (receptor, UniProt P32304 1-448, looked up, Serotonin receptor 7 (5-HT7R) with F278A and F281A in intracellular loop 3; Primers are in Additional file 1; also called F278;F281A; source: N1E-115 cells, transfected, in lysate; not shown: HA, N-terminal, kept) MMDVNSSGRPDLYGHLRSLILPEVGRRLQDLSPDGGAHSVVSSWMPHLLSGFPEVTASPAPTWDAPPDNVSGCGEQINYGRVEKVVIGSILTLITLLTIAGNCLVVISVCFVKKLRQPSNYLIVSLALADLSVAVAVMPFVSVTDLIGGKWIFGHFFCNVFIAMDVMCCTASIMTLCVISIDRYLGITRPLTYPVRQNGKCMAKMILSVWLLSASITLPPLFGWAQNVNDDKVCLISQDFGYTIYSTAVAFYIPMSVMLFMYYQIYKAARKSAAKHKASGAPRVQPESVISLNGVVKLQKEVEECANLSRLLKHERKNISIFKREQKAATTLGIIVGAFTVCWLPFFLLSTARPFICGTSCSCIPLWVERTCLWLGYANSLINPFIYAFFNRDLRTTYRSLLQCQYRNINRKLSAAGMHEALKLAERPERSEFVLQNCDHCGKKGHDT
